What was measured:
PSAT1 [1] = assay: PSAT1 protein expression in mouse myocardium post-MI after modRNA delivery; type: in vivo; details: 100 μg modRNA into myocardium post-MI; within 24 hours
Description: In vivo transfection of modRNA was done as described previously in a recent method paper (Magadum A., et al., Circulation. 2020, 141 (15): 1249-1265; Sultana N., et al., Mol Ther, 2017, 25 (6): 1306-1315) using sucrose citrate buffer containing 10 μl of sucrose in nuclease-free water (0.3 g/ml), 10 μl of citrate (0.1M pH-7; Sigma) mixed with 10 μl of different concentrations of modRNA in saline to a total volume of 30 μl. Immediately after LAD ligation, mice received an intra-myocardial injection of modRNA (100 μg) in total volume of 30 μL at 3 different sites (mid-anterior×2 places and apical anterior) in the peri-infarct area (Magadum A., et al., Circulation. 2020, 141 (15): 1249-1265; Magadum, A., et al., 2021, Advanced Science, 9:2004661). For in vitro transfection, RNAiMAX transfection reagent (Life Technologies) was used according to manufacturer's recommendation (Magadum A., et al., Circulation. 2020, 141 (15): 1249-1265; Sultana N., et al., Mol Ther, 2017, 25 (6): 1306-1315).
All surgical and experimental procedures with mice were performed in accordance with protocols approved by Institutional Animal Care and Use Committees at Temple University Animal Care and Use Committee (IACUC). C57BL6 or CM-specific MADM mice (8-12-weeks-old) were anesthetized with isoflurane. […] This ratio was calculated as the heart tissue weight relative to the mouse total body weight in grams (g). […]

PSAT1 [2] = assay: PSAT1 protein expression in NRVM after modRNA transfection; type: cell-based, rat; details: in vitro modRNA transfection
[3] = system: serine synthesis pathway (SSP); assay: 13C glucose isotopic tracer metabolic flux analysis in neonatal rat CMs; type: cell-based
Description: P3 neonatal rat CMs (2×10^6) were cultured in DMEM and transfected with Luc or PSAT1 modRNA. After 6 hours medium was changed with ^13C glucose-containing DMEM. Samples were collected at 10 min, 2 hours and 18 hours by flash freezing the cell culture plates using liquid nitrogen and stored at −80° C. Metabolites were extracted from cells using 80% methanol (Magadum A., et al., Circulation. 2020, 141 (15): 1249-1265). Targeted LC/MS analyses were performed on a Q Exactive Orbitrap mass spectrometer (Thermo Scientific) coupled to a Vanquish UPLC system (Thermo Scientific). The Q Exactive was operated in polarity-switching mode. A Sequant ZIC-HILIC column (2.1 mm i.d.×150 mm, Merck) was used for separation of metabolites with a flow rate was 150 μL/min. […] Relative metabolite quantitation was performed based on peak area for each metabolite. All data analyses were done using scripts written in house (Metabolomics Facility, Biotechnology Resource Center, Cornell University).

B1: PSAT1 modRNA: modified mRNA with N1-methylpseudouridine, transcribed in vitro, encoding phosphoserine aminotransferase 1 (ORF SEQ ID NO: 1, RNA SEQ ID NO: 2) (nucleic acid)
chain: AUGGAAGCCACCAAGCAAGUGGUUAACUUUGGGCCCGGGCCUGCCAAGCUGCCACACUCGGUAUUGUUGGAGAUCCAGAAGCAGCUACUAGACUACAGAGGACUCGGCAUCAGUGUGCUCGAAAUGAGUCACAGGUCAUCAGAUUUUGCCAAGAUUAUUGGCAAUACAGAGAAUCUUGUGAGGGAAUUGCUAGCUGUUCCCAACAACUACAAGGUGAUCUUUGUACAAGGAGGUGGGUCUGGCCAGUUCAGUGCUGUCCCCUUAAAUCUGAUUGGCCUGAAAGCUGGAAGGAGUGCUGACUACGUGGUGACCGGAGCUUGGUCAGCUAAGGCUGCGGAAGAAGCCAAGAAGUUUGGAACGGUGAACAUUGUCCACCCUAAACUUGGAAGUUACACAAAAAUUCCAGACCCAAGCACCUGGAACCUCAACCCGGACGCCUCCUAUGUAUACUUCUGUGCAAACGAGACUGUGCACGGGGUGGAGUUUGACUUCGUACCUGACGUCAAGGGAGCGGUGCUGGUCUGUGACAUGUCCUCAAACUUCUUAUCCAGGCCGGUGGAUGUUUCCAAGUUUGGUGUGAUUUUCGCUGGUGCUCAGAAGAAUGUUGGCUCUGCCGGGGUGACGGUGGUGAUUGUCCGGGAUGACCUGCUGGGGUUCUCGCUCAGAGAGUGCCCAUCAGUCCUUGACUACAAAGUGCAGGCUGGGAACAACUCUUUGUAUAACACACCUCCGUGCUUCAGCAUCUACGUCAUGGGCAUGGUCCUGGAAUGGAUCAAGAACAACGGCGGGGCCGCAGCCAUGGAGAAGCUCAGCUCCAUCAAAUCCCAAAUGAUUUAUGAGAUCAUUGAUAAUUCUCAAGGAUUUUAUGUAUGCCCAGUGGAGCGCCAGAAUAGAAGCAGGAUGAACAUCCCAUUUCGCAUUGGCAACGCCAAAGGAGACGAAGCUUUGGAAAAGCGGUUUCUUGACAAGGCGGUAGAACUCAACAUGAUCUCCUUGAAGGGGCACAGGUCAGUGGGAGGCAUUCGUGCCUCUCUGUAUAACGCUGUCACAACCGAAGACGUUGAGAAGCUGGCGGCCUUCAUGAAGAAUUUCUUGGAGAUGCAUCAGCUGUGA
modifications: N1-methylpseudouridine
- PSAT1 protein expression in mouse myocardium (PSAT1 [1]): robust
- PSAT1 protein expression in NRVM (onset and duration) (PSAT1 [2]): achieved within hours of administration and lasted up to several days
- glutathione levels ([3]; 13C glucose flux): Increased
- purines AMP and GMP levels ([3]; 13C glucose flux): increased
- TCA cycle intermediates ([3]; 13C glucose, vs Luc modRNA): Increased levels
- metabolites involved in the serine synthesis pathway (SSP), including phosphoserine, serine, and glycine ([3]; 13C glucose, vs Luc modRNA): significant elevation
